Measured values published in the RNAGym collection of RNA variant scans (doi:10.1073/pnas.2313332121).

B1: TPR t1 (parent)
chain: GACCAAUCUGCCCUCAGAGCUCGAGAACAUCUUCGGAUGCAGAGGAGGCAGGCUUCGGUGGCGCGAUAGCGCCAACGUCCUCAACCUCCAAUGCAUCCCACCACAUGAUGAUGCCUGAAGAGCCUUGGUUUUUUG

Variants of: B1
Assay: polymerase ribozyme fitness, log enrichment relative to wild type (log ratio); higher = more active; in vitro selection for triplet polymerase activity
Outline: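 Fitness is a logarithmic measure of how a genotype enriched relative to the wild type, with replicate averages weighted by inverse variance. The logarithm uses base 2, and enrichment came from Illumina sequencing of input and output libraries. Those libraries were PCR-built, transcribed mutants of each subunit of a heterodimeric triplet polymerase ribozyme, passed through one triplicate in vitro selection round that included frozen incubation at −7 °C, gel excision of extended constructs and streptavidin-bead capture. Genotypes were kept only if they had ≥10 input reads and ≥1 read per output.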

Row | Variant | polymerase ribozyme fitness (log ratio)
1 | C28G A37U | -2.45
2 | C28G U32C C101A | -3.79
3 | A29C U33C U55A C86A C124A | -6.12
4 | A29G G36A C53U U55C G69U G127C | -4.42
5 | C28G U32C G69C U78C C86G G117U C123U | -7.36
6 | A29G G107A | -5.6
7 | C28U A83U C86G C123G | -1.55
8 | C28G A50C G61A C88A | -3.77
9 | C28G C76U | -3.02
10 | C28A G60U A74U A83C G113U | -6.48
11 | C28U G71A C89A C123G U130C | -3.76
12 | C28G G36U C72U C73U | -4.2
13 | A29G C85G C88U | -2.58
14 | A29G C123G | 0.246
15 | A29G C123U | -0.36
16 | C28G A50C U87A | -3.39
17 | A29C C56U U81A | -2.74
18 | C28A C49U G69U G113A | -1.42
19 | A29C C79U | -3.18
20 | C28G C89A | -4.51
21 | A29G A37U A95C | -3.29

Row | Variant | polymerase ribozyme fitness (log ratio)
22 | A29C G61A C88G C114G | -6.84
23 | C28G A43G G45A C79A C115U G117U | -5.19
24 | A29G G110A | -2.21
25 | C28U C34A C53G C124A | -4.41
26 | A29G C49U G61A C85U | -1.74
27 | C28G G93U A119G U129C | -4.2
28 | C28A A74C G117U | -7.34
29 | A29C A74U | -2.93
30 | A29G C62U A118U G120C | -1.4
31 | A29G G42A G69C | -4.23
32 | A29G G71U A83U | -1.51
33 | A29C C62A | -3
34 | A29C G44C C53U C85A C124G | -4.76
35 | C28A C85U A121U | -3.69
36 | C28G U59A | -3.18
37 | C28U A121U | 0.361
38 | C28G G110A | -1.49
39 | C28G C114U | -5.68
40 | A29C U54C A84U G120C | -2.27
41 | C28G U59A C89G A103G C104A U109G C123G U133A | -5.51
42 | C28A C124A U125C G127U | -3.12

Row | Variant | polymerase ribozyme fitness (log ratio)
43 | C28G A29C A95G C98U G107A U112A | -5.27
44 | C28G U59A C104U G113C | -5
45 | A29G A43G | -2.43
46 | A29G A43U G61U U116C G117U | -0.773
47 | A29G C40A C97U G113C | -4.13
48 | A29C A121U | 0.0449
49 | C28G U38C G77C A84U U92C G113U U129G | -5.83
50 | A29G G44U A50U G69U | -2.04
51 | A29G C31G U55G C124U | -6.79
52 | C28G C72U | -3.07
53 | C28G G63A | -4.42
54 | C28U C79G | -4.3
55 | A29G A37C G71U G117U | -4.47
56 | A29C G47A G69U | -1.84
57 | C28G G39U C53U G63C U78C C124A | -3.85
58 | C28G U32G C62A A121C | -6.19
59 | C28G G69A A121C | -5.9
60 | C28G U33A C53A C114U G128U U133A | -7.29
61 | A29G G47A G51U C123G U129A U133G | -5.68
62 | C28U G44U C56A | -4.15
63 | C28U A84G A90C G113C | -5.73

Row | Variant | polymerase ribozyme fitness (log ratio)
64 | C28G G60A C79G | -4.94
65 | C28A G45A C53U G61A G110C | -1.65
66 | C28U U55C U59C | -3.17
67 | C28A C64G A111U C115G | -6.15
68 | C28A A74C | -4.96
69 | C28A C88G | -4.25
70 | C28U U59G C86G C89U | -4.05
71 | A29C G39C | -3.97
72 | C28A G39U C64U C104A A119G | -5.82
73 | A29C G60U U87C | -2.47
74 | C28A C73A C124G | -3.22
75 | C28U C49U G60U A75G | -3.76
76 | C28U C64A A95G C115A U129C U134A | -4.91
77 | C28A G60C | -4.02
78 | C28U G113C C123G | -3.9
79 | C28G A37C A91C | -6.42
80 | A29C G51A | -6.28
81 | C28G A46G G120A U130A | -2.51
82 | C28U G61U U92C | -2.53
83 | C28U A43G C72G U112G | -5.26
